± gives the uncertainty stated by the source.
Test: self-splicing fitness, log relative to wild type (ln ratio); higher = more splicing; Tetrahymena group I intron in knt gene, E. coli kanamycin selection, DiMSum; sequences stand for … in CUCUCU…GGAGGGAAAAGUUAUCAGGCAUGCACCUGGUAGCUAGUCUUUAAACCAAUAGAUUGCAUCGGUUUAAAAGGCAAGACCGUCAAAUUGCGGGAAAGGGGUCAACAGCCGUUCAGUACCAAGUCUCAGGGGAAACUUUGAGAUGGCCUUGCAAAGGGUAUGGUAAUAAGCUGACGGACAUGGUCCUAACCACGCAGCCAAGUCCUAAGUCAACAGAUCUUCUGUUGAUAUGGAUGCAGUUCACAGACUAAAUGUCGGUCGGGGAAGAUGUAUUCUUCUCAUAAGAUAUAGUCGGACCUCUCCUUAAUGGGAGCUAGCGGAUGAAGUGAUGCAACACUGGAGCCGCUGGGAACUAAUUUGUAUGCGAAAGUAUAUUGAUUAGUUUUGGAGUACUCGUGGUCG
Procedure, shortened: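 Library with all eight P1ex-region intron nucleotides randomised, intron inside the knt kanamycin-resistance gene on pET-22b(+), in E. coli BL21(DE3). Cells grew overnight at 37°C or 30°C on LB agar with or without 25 μg/mL kanamycin (plus 100 μg/mL carbenicillin, 50 μM IPTG, 0.2% rhamnose), in six replicate transformations. Pooled colonies were amplicon-sequenced on Illumina HiSeq 2500. DiMSum fitness is the error-weighted combination of wild-type-normalised replicate fold changes, kanamycin versus none.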

Sequence | self-splicing fitness (ln) (30 °C) | self-splicing fitness (ln) (37 °C)
UUUAAGCAAUAUUACGCUCA | -0.755 ± 0.15 | -0.395 ± 0.17
CUUUAGCAAUAUUACGGAGA | -2.74 ± 0.49 | –
UCAUAGCAAUAUUACGUGUG | -1.8 ± 0.068 | -1.84 ± 0.075
UGGCAGCAAUAUUACGUAAG | -0.674 ± 0.049 | 0.00441 ± 0.073
GUCCAGCAAUAUUACGGCGA | -1.32 ± 0.12 | -0.997 ± 0.14
CCAGAGCAAUAUUACGCACU | -2.9 ± 0.25 | –
UCUUAGCAAUAUUACGGAGG | -2.67 ± 0.34 | -2.17 ± 0.31
CUAUAGCAAUAUUACGGGCG | -0.345 ± 0.084 | -0.342 ± 0.098
UUAUAGCAAUAUUACGGCCU | -1.48 ± 0.18 | -1.09 ± 0.23
ACCGAGCAAUAUUACGGCUC | -4.07 ± 0.39 | -1.54 ± 0.35
GUAUAGCAAUAUUACGGGUA | -2.56 ± 0.27 | -1.28 ± 0.19
AUCUAGCAAUAUUACGUAUA | -2.84 ± 0.33 | -1.91 ± 0.3
UCCCAGCAAUAUUACGAAGG | -3.68 ± 0.23 | -1.63 ± 0.23
AUGGAGCAAUAUUACGCACA | -1.57 ± 0.16 | -0.961 ± 0.21
CUGAAGCAAUAUUACGGAAU | -3.01 ± 0.15 | -1.96 ± 0.15
GUGCAGCAAUAUUACGCAUC | – | -3.79 ± 0.37
GGAAAGCAAUAUUACGAACC | -3.32 ± 0.33 | -1.2 ± 0.19
UAGUAGCAAUAUUACGGGAA | -2.79 ± 0.32 | -1.65 ± 0.29
AAGAAGCAAUAUUACGUCAU | -1.81 ± 0.075 | -1.04 ± 0.1
UUAAAGCAAUAUUACGAAUC | -3.58 ± 0.26 | -1.79 ± 0.16
CUUGAGCAAUAUUACGACAG | -1.19 ± 0.1 | -0.98 ± 0.14
UCCUAGCAAUAUUACGCUGU | -2.52 ± 0.22 | -2.23 ± 0.27
CAGAAGCAAUAUUACGGUAC | -4.59 ± 0.28 | -1.72 ± 0.21
ACCAAGCAAUAUUACGGGCG | -0.824 ± 0.048 | 0.12 ± 0.068
GUUGAGCAAUAUUACGCGUG | -3.36 ± 0.15 | -2.66 ± 0.21

Sequence | self-splicing fitness (ln) (30 °C) | self-splicing fitness (ln) (37 °C)
GCGGAGCAAUAUUACGGAUA | -2.53 ± 0.33 | -1.26 ± 0.25
UCUUAGCAAUAUUACGCAAU | – | -2.53 ± 0.36
GUGGAGCAAUAUUACGGAGG | -2.41 ± 0.28 | -0.95 ± 0.28
AUACAGCAAUAUUACGGGUA | -1.24 ± 0.078 | -0.645 ± 0.078
GAGGAGCAAUAUUACGCCAA | – | -1.6 ± 0.48
GUUCAGCAAUAUUACGUCAA | -1.86 ± 0.14 | -0.976 ± 0.14
UACCAGCAAUAUUACGCGCA | 0.0526 ± 0.065 | -0.42 ± 0.08
AUACAGCAAUAUUACGACUA | -0.177 ± 0.1 | -0.541 ± 0.089
CUAAAGCAAUAUUACGCUCU | -2.94 ± 0.41 | –
GGUGAGCAAUAUUACGGCGC | -0.434 ± 0.13 | -0.198 ± 0.19
AGGGAGCAAUAUUACGCGCA | -1.71 ± 0.4 | -2.11 ± 0.34
UGUAAGCAAUAUUACGCCUU | -1.69 ± 0.35 | -1.5 ± 0.43
UGAAAGCAAUAUUACGAACC | -1.55 ± 0.17 | -1.16 ± 0.22
CUAUAGCAAUAUUACGAACA | -2.76 ± 0.19 | -2.49 ± 0.2
GAGGAGCAAUAUUACGUGCA | -3.41 ± 0.34 | -1.31 ± 0.17
CUAAAGCAAUAUUACGUGUG | -0.323 ± 0.049 | 0.387 ± 0.06
UAAGAGCAAUAUUACGAUAG | -3.46 ± 0.31 | -2.12 ± 0.33
UCCAAGCAAUAUUACGUUCC | – | -1.57 ± 0.31
GUCUAGCAAUAUUACGUCUU | -0.274 ± 0.09 | 1.25 ± 0.099
UUUGAGCAAUAUUACGAUGG | -2.08 ± 0.17 | -1.77 ± 0.2
UCCCAGCAAUAUUACGAGUA | -1 ± 0.072 | -0.558 ± 0.069
UUACAGCAAUAUUACGGACG | -0.683 ± 0.079 | -0.00562 ± 0.096
GCUUAGCAAUAUUACGACUG | -1.67 ± 0.1 | -0.937 ± 0.11
GAGGAGCAAUAUUACGCGUU | -3.99 ± 0.39 | -2.2 ± 0.36
GGCGAGCAAUAUUACGGUGG | -3.31 ± 0.24 | -2.07 ± 0.22

Sequence | self-splicing fitness (ln) (30 °C) | self-splicing fitness (ln) (37 °C)
UCACAGCAAUAUUACGCUGU | -2.88 ± 0.16 | -2.19 ± 0.24
ACUAAGCAAUAUUACGCCUA | -1.41 ± 0.13 | -0.734 ± 0.13
AAACAGCAAUAUUACGACUA | -0.953 ± 0.074 | 0.0444 ± 0.077
GGUAAGCAAUAUUACGAAUU | -1.04 ± 0.11 | -0.205 ± 0.14
CAUGAGCAAUAUUACGCUAA | – | -2.94 ± 0.43
CCCUAGCAAUAUUACGGAGU | -4.58 ± 0.36 | -2.99 ± 0.35
UUUAAGCAAUAUUACGCGGG | -1.81 ± 0.13 | -1.63 ± 0.14
AAUGAGCAAUAUUACGUCGG | -3.31 ± 0.22 | -2.44 ± 0.4
AACCAGCAAUAUUACGAGAG | -3.44 ± 0.15 | -2.06 ± 0.12
UUCAAGCAAUAUUACGUUGA | -2.77 ± 0.21 | -2.7 ± 0.21
UACCAGCAAUAUUACGACCG | -0.151 ± 0.067 | 0.099 ± 0.095
AUAAAGCAAUAUUACGUUAC | -2.55 ± 0.13 | -0.574 ± 0.12
AUCUAGCAAUAUUACGGCAG | -2.04 ± 0.17 | -0.157 ± 0.16
UUGAAGCAAUAUUACGAGCG | -0.107 ± 0.089 | 0.65 ± 0.14
ACACAGCAAUAUUACGAAAC | -3.02 ± 0.23 | -1.82 ± 0.22
AAUAAGCAAUAUUACGCCCC | 0.198 ± 0.2 | -0.311 ± 0.24
ACUCAGCAAUAUUACGGCCU | -0.0739 ± 0.079 | -0.0329 ± 0.099
GUACAGCAAUAUUACGAACC | -1.19 ± 0.14 | -0.582 ± 0.18
CCCGAGCAAUAUUACGCACC | -3.46 ± 0.28 | -2.35 ± 0.4
AAUUAGCAAUAUUACGAAAC | – | -0.761 ± 0.4
CCGAAGCAAUAUUACGCUGA | -3.08 ± 0.27 | -3.41 ± 0.42
UUGCAGCAAUAUUACGUCGA | -0.56 ± 0.09 | 0.0432 ± 0.13
UUCCAGCAAUAUUACGAAUC | -4.37 ± 0.31 | -1.09 ± 0.41
UAGGAGCAAUAUUACGGCGA | -1.51 ± 0.17 | -1.46 ± 0.18
GCGAAGCAAUAUUACGCAUU | -2.56 ± 0.17 | -2.15 ± 0.19

Sequence | self-splicing fitness (ln) (30 °C) | self-splicing fitness (ln) (37 °C)
UGGCAGCAAUAUUACGCUUA | -0.68 ± 0.088 | 0.67 ± 0.1
GGUGAGCAAUAUUACGGGUA | -2.58 ± 0.31 | -1.64 ± 0.38
CCUGAGCAAUAUUACGAAAU | -3.15 ± 0.29 | -0.975 ± 0.19
UGACAGCAAUAUUACGUCCC | -0.969 ± 0.17 | -1.51 ± 0.36
CAACAGCAAUAUUACGAGAU | -3.74 ± 0.2 | -1.79 ± 0.15
UCCCAGCAAUAUUACGUCCG | – | -2.06 ± 0.47
CUCCAGCAAUAUUACGUAUA | -3.54 ± 0.23 | -0.63 ± 0.16
GACUAGCAAUAUUACGUAGU | -2.84 ± 0.18 | -2.28 ± 0.27
GGAAAGCAAUAUUACGACAU | -0.445 ± 0.013 | -0.0162 ± 0.033
CGGCAGCAAUAUUACGGUUG | -2.93 ± 0.14 | -1.11 ± 0.12
GUCUAGCAAUAUUACGUGGC | -2.84 ± 0.44 | -3.01 ± 0.43
GGGUAGCAAUAUUACGUACG | -0.676 ± 0.23 | -0.536 ± 0.29
CACGAGCAAUAUUACGAAGC | – | -1.41 ± 0.26
GAGGAGCAAUAUUACGGACU | -1.49 ± 0.14 | -1.22 ± 0.28
GUGAAGCAAUAUUACGUGAA | -2.63 ± 0.11 | -0.504 ± 0.12
GACGAGCAAUAUUACGUGAA | – | -2.29 ± 0.32
UUCGAGCAAUAUUACGCAUC | -2.83 ± 0.39 | –
CUACAGCAAUAUUACGGCUG | -3.92 ± 0.18 | -2.57 ± 0.22
UUGAAGCAAUAUUACGUACC | -3.61 ± 0.41 | -1.07 ± 0.35
AUAAAGCAAUAUUACGAUUU | 0.496 ± 0.082 | 0.827 ± 0.1
UCCGAGCAAUAUUACGCCUU | -2.35 ± 0.35 | –
UAUUAGCAAUAUUACGUCAG | -1.84 ± 0.1 | -0.992 ± 0.12
CCAAAGCAAUAUUACGUGUC | -3.56 ± 0.21 | -3.6 ± 0.29
GAGAAGCAAUAUUACGAAAC | -2.29 ± 0.36 | -1.71 ± 0.48

From the supplement of paper PMC7877785
